The results in this text go back to patent US20070055049A1.

In experiment [1] the target is HLA-A*0201 (human). Put plainly: competitive inhibition, purified HLA-A2.1.
In experiment [2] the target is HLA-A*0201 (human). The note with it: remark: other sources report otherwise.
Experiment [3] addresses HLA-A3.2 (product of the A*0301 gene) (human).
The target in experiment [4] is HLA-A*0201 (human). Put plainly: inhibition curve with unlabeled peptide, purified A2.1. The note with it: remark: other sources report otherwise.
The target of experiment [5] is HLA-A*0201 (human). Description: competitive inhibition, purified HLA-A2.1, reference peptide.
Experiment [6] addresses HLA-A*0201 (human). Put plainly: competitive inhibition, purified HLA-A2.1, standard reference peptide.
The target of experiment [7] is HLA-A*0201 (human). Put plainly: competitive inhibition of the radiolabeled peptide, purified HLA, average.
Another experiment addresses HLA-A*0203 (human). The experiment is described as above.

In the experiment with HLA-A*0201 (human) [1], YMDDVVLGA (modifications not checked) [HBV pol 538 peptide] had an IC50 of 200 nM.
FLPSDFFPSV (modifications not checked) [HBc 18-27 peptide, P03146 18-27] displayed a percent of radiolabeled peptide bound with HLA-A*0201 (human) [2] of 95%. The values for the IC50 (in experiment [3]; in the experiment with HLA-A*0201 (human) [4]) were > 30000 nM and 25 nM, respectively.
With FLPSDYFPSV (modifications not checked) [HBV core 18-27 F6>Y analog peptide], the IC50 in the experiment with HLA-A*0201 (human) [5] turned out to be 5 nM; in the experiment with HLA-A*0201 (human) [6], 5 nM; in the experiment with HLA-A*0201 (human) [7], 5 nM; in the experiment with HLA-A*0203 (human), 10 nM.
